B1: cytochrome P-450TYR from Sorghum bicolor (L.) Moench (enzyme)
chain: ATMEVEAAAATVLAAPLLSSSAILKLLLFVVTLSYLARALRRPRKSTTKCSSTTCASPPAGVGNPPLPPGPVPWPVVGNLPEMLLNKPAFRWIHQMMREMGTDIACVKLGGVHVVSITCPEIAREVLRKQDANFISRPLTFASETFSGGYRNAVLSPYGDQWKKMRRVLTSEIICPSRHAWLHDKRTDEADNLTRYVYNLATKAATGDVAVDVRHVARHYCGNVIRRLMFNRRYFGEPQADGGPGPMEVLHMDAVFTSLGLLYAFCVSDYLPWLRGLDLDGHEKIVKEANVAVNRLHDTVIDDRWRQWKSGERQEMEDFLDVLITLKDAQGNPLLTIEEVKAQSQDITFAAVDNPSNAVEWALAEMVNNPEVMAKAMEELDRVVGRERLVQESDIPKLNYVKACIREAFRLHPVAPFNVPHVALADTTIAGYRVPKGSHVILSRTGLGRNPRVWDEPLRFYPDRHLATAASDVALTENDLRFISFSTGRRGCIAASLGTAMSVMLFGRLLQGFTWSKPAGVEAVDLSESKSDTFMATPLVLHAEPRLPAHLYPSISI

Experiments:
[1] = target: NADPH-cytochrome P-450 oxidoreductase purified from Sorghum bicolor (Sorghum bicolor)
[2] = target: NADPH-cytochrome P-450 oxidoreductase purified from Sorghum bicolor (Sorghum bicolor); remark: listed apart in the source

Molecule	oxime production in reconstitution experiments in dilaurylphosphatidylcholine micelles (turnover rate) (nmol oxime per nmol P-450TYR per minute) [1]	conversion of L-tyrosine to p-hydroxyphenylacetaldehyde oxime by the enzyme reconstituted in DLPC micelles (turn-over number) [2] [min⁻¹]
modified cytochrome P-450TYR, in which the 35 N-terminal amino acids are replaced by the nine N-terminal amino acids from bovine 17alpha hydroxylase, expressed in E. coli (from UniProt P05185) (enzyme)	349	–
B1	–	228
